Results published in publication PMC8238519 (Biochemical Journal, 2021).

Tests used:
[1] = target: Chlamydomonas reinhardtii photosystem I PsaA-Asp648Arg (Chlamydomonas reinhardtii) (UniProt P12154)
[2] = target: pea PsaA (Pisum sativum (pea), UniProt P05310 16-758); test: cryo-EM structure
[3] = target: pea PsaB (Pisum sativum (pea), UniProt P05311 13-734); test: cryo-EM structure
Sequence of pea PsaB (P05311 13-734): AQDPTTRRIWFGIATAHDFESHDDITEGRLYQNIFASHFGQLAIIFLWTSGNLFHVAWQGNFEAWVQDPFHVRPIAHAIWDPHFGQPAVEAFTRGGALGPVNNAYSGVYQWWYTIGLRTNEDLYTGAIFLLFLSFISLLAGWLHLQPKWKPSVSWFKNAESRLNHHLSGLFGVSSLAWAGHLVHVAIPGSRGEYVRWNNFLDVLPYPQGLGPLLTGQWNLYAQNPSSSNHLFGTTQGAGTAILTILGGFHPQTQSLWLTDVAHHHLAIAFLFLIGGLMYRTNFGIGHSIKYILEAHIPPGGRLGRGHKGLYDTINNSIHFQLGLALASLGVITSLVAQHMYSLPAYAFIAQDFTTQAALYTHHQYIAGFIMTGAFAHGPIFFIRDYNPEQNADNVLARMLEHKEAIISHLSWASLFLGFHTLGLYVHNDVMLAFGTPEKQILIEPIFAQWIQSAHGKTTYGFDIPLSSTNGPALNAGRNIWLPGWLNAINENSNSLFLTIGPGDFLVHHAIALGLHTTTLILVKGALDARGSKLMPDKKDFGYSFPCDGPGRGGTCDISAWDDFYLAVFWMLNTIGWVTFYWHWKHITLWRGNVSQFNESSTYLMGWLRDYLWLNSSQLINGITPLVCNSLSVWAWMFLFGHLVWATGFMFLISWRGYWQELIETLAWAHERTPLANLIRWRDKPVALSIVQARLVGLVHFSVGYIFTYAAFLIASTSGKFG

Sequence of pea PsaA (P05310 16-758): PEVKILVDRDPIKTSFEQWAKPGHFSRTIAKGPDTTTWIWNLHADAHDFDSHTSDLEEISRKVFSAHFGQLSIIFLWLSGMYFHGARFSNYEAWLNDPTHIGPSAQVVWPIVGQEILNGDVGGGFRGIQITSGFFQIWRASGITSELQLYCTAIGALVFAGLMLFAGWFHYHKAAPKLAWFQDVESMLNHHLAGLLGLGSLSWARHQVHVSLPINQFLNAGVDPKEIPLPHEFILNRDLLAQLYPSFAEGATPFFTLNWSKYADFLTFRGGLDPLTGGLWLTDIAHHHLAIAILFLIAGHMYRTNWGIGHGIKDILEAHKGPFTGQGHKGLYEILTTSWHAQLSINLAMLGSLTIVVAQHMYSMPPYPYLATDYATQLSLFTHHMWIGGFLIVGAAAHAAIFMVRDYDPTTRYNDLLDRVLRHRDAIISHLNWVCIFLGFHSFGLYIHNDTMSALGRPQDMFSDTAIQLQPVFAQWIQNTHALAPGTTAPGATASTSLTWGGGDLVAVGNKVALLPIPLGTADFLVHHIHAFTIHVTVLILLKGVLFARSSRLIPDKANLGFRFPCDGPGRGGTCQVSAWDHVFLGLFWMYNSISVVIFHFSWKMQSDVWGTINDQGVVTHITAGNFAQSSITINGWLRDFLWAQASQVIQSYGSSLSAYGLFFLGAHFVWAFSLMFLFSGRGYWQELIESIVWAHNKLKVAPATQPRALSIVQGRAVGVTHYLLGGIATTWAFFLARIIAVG

Row | binding result [2] | binding result [3] | Molecule | second-order rate constant of P700+ reduction by Pc (single flash absorption) [1] [M⁻¹ s⁻¹]
1 |  |  | Chlamydomonas reinhardtii plastocyanin (natural protein) | 6.54e+07
2 | binds | binds | pea plastocyanin (natural protein, pea (Pisum sativum), UniProt P16002 70-168, looked up) VEVLLGASDGGLAFVPSSLEVSAGETIVFKNNAGFPHNVVFDEDEIPAGVDASKISMPEEDLLNAPGETYSVKLDAKGTYKFYCSPHQGAGMVGQVTVN | 
